Biological target: H-2Db class I MHC molecule on the surface of RMA-S cells (mouse (endogenous in RMA-S))

influenza NP (365-380) peptide showed a fold increase in H-2Db reactivity (mAb 28.14.8) after peptide treatment of 2 fold.
